This is an account of results in the supplement of paper PMC5998384.

The subject of data set [1] is HeLa Kyoto. The data set can be described thus: solubility in G1/S (NP-40 vs SDS abundance) (log2 ratio); higher = more soluble. To be noted: cell cycle stage: G1/S.
Data set [2] deals with HeLa Kyoto. Briefly: thermal stability score vs G1/S (z-score of summed log2 fold changes over temperatures); higher = more thermally stable than in G1/S.
In data set [3] the test system is HeLa Kyoto. Briefly: melting temperature (median over replicates), in situ; higher = more thermally stable.
Data set [4] deals with HeLa Kyoto. The data set can be described thus: solubility change mitosis vs G1/S (difference of NP-40 vs SDS log2 ratios) (log2 ratio difference); higher = more soluble in mitosis.
Where [5] appears, read: cell cycle stage: early G1 (4.5 h after nocodazole release).
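Throughout, for melting temperature (median over replicates), in situ: HeLa Kyoto cells synchronized by double thymidine or nocodazole block, proteins quantified by TMT10plex mass spectrometry, three independent biological replicates.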
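Throughout, for solubility change mitosis vs G1/S (difference of NP-40 vs SDS log2 ratios): synchronized HeLa Kyoto cells (double thymidine block for G1/S, nocodazole release for mitosis), protein amounts in NP-40 versus SDS lysates quantified by mass spectrometry, three biological replicates.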
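Throughout, for solubility in G1/S (NP-40 vs SDS abundance): HeLa Kyoto cells arrested at G1/S by double thymidine block, proteins quantified by TMT10plex mass spectrometry in mild NP-40 versus SDS extracts, three biological replicates.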
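Throughout, for thermal stability score vs G1/S (z-score of summed log2 fold changes over temperatures): synchronized HeLa Kyoto cells, proteins quantified by TMT10plex mass spectrometry, three biological replicates, mitosis taken 0.5 h after nocodazole release, G1/S directly after double thymidine block.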

As to “MGLLSQGSPLSWEETKRHADHVRRHGILQFLHIYHAVKDRHKDVLKWGDEVEYMLVSFDHENKKVRLVLSGEKVLETLQEKGERTNPNHPTLWRPEYGSYMIEGTPGQPYGGTMSEFNTVEANMRKRRKEATSILEENQALCTITSFPRLGCPGFTLPEVKPNPVEGGASKSLFFPDEAINKHPRFSTLTRNIRHRRGEKVVINVPIFKDKNTPSPFIETFTEDDEASRASKPDHIYMDAMGFGMGNCCLQVTFQACSISEARYLYDQLATICPIVMALSAASPFYRGYVSDIDCRWGVISASVDDRTREERGLEPLKNNNYRISKSRYDSIDSYLSKCGEKYNDIDLTIDKEIYEQLLQEGIDHLLAQHVAHLFIRDPLTLFEEKIHLDDANESDHFENIQSTNWQTMRFKPPPPNSDIGWRVEFRPMEVQLTDFENSAYVVFVVLLTRVILSYKLDFLIPLSKVDENMKVAQKRDAVLQGMFYFRKDICKGGNAVVDGCGKAQNSTELAAEEYTLMSIDTIINGKEGVFPGLIPILNSYLENMEVDVDTRCSILNYLKLIKKRASGELMTVARWMREFIANHPDYKQDSVITDEMNYSLILKCNQIANELCECPELLGSAFRKVKYSGSKTDSSN [GCLC]”, the “solubility in G1/S (log2)” value in the data set on HeLa Kyoto [1] was 0.0288. Further, the thermal stability score in the data set with HeLa Kyoto [2] (setting [5]) was -0.677; in the data set on HeLa Kyoto [2] (cell cycle stage: mitosis), -1.1. Also, the melting temperature was found to be 52 °C in the data set with HeLa Kyoto [3] (cell cycle stage: G1/S) and 51.8 °C in the data set on HeLa Kyoto [3] (cell cycle stage: mitosis). Further, in the data set on HeLa Kyoto [4], the “solubility change mitosis (log2)” value was -0.172.

For the sequence “MRTDSGARLEEGHLRPPRALPPVPSQDDIPLSRPKKKKPRTKNTPASASLEGLAQTAGRRPSEGNEPSTKELKEHPEAPVQRRQKKTRLPLELETSSTQKKSSSSSLLRNENGIDAEPAEEAVIQKPRRKTKKTQPAELQYANELGVEDEDIITDEQTTVEQQSVFTAPTGISQPVGKVFVEKSRRFQAADRSELIKTTENIDVSMDVKPSWTTRDVALTVHRAFRMIGLFSHGFLAGCAVWNIVVIYVLAGDQLSNLSNLLQQYKTLAYPFQSLLYLLLALSTISAFDRIDFAKISVAIRNFLALDPTALASFLYFTALILSLSQQMTSDRIHLYTPSSVNGSLWEAGIEEQILQPWIVVNLVVALLVGLSWLFLSYRPGMDLSEELMFSSEVEEYPDKEKEIKASS [TMEM237]”, the “solubility in G1/S (log2)” value with HeLa Kyoto [1] was -0.0506. Further, the values for the thermal stability score in the data set with HeLa Kyoto [2] (setting [5]) and in the data set on HeLa Kyoto [2] (cell cycle stage: mitosis) were -4.81 and -5.57, respectively. Besides, the melting temperature in the data set with HeLa Kyoto [3] (cell cycle stage: G1/S) turned out to be 54.9 °C; in the data set with HeLa Kyoto [3] (cell cycle stage: mitosis), 55.4 °C. In addition, the “solubility change mitosis (log2)” value in the data set with HeLa Kyoto [4] was -0.0698.

Consider “MAAQRIRAANSNGLPRCKSEGTLIDLSEGFSETSFNDIKVPSPSALLVDNPTPFGNAKEVIAIKDYCPTNFTTLKFSKGDHLYVLDTSGGEWWYAHNTTEMGYIPSSYVQPLNYRNSTLSDSGMIDNLPDSPDEVAKELELLGGWTDDKKVPGRMYSNNPFWNGVQTNPFLNGNVPVMPSLDELNPKSTVDLLLFDAGTSSFTESSSATTNSTGNIFDELPVTNGLHAEPPVRRDNPFFRSKRSYSLSELSVLQAKSDAPTSSSFFTGLKSPAPEQFQSREDFRTAWLNHRKLARSCHDLDLLGQSPGWGQTQAVETNIVCKLDSSGGAVQLPDTSISIHVPEGHVAPGETQQISMKALLDPPLELNSDRSCSISPVLEVKLSNLEVKTSIILEMKVSAEIKNDLFSKSTVGLQCLRSDSKEGPYVSVPLNCSCGDTVQAQLHNLEPCMYVAVVAHGPSILYPSTVWDFINKKVTVGLYGPKHIHPSFKTVVTIFGHDCAPKTLLVSEVTRQAPNPAPVALQLWGKHQFVLSRPQDLKVCMFSNMTNYEVKASEQAKVVRGFQLKLGKVSRLIFPITSQNPNELSDFTLRVQVKDDQEAILTQFCVQTPQPPPKSAIKPSGQRRFLKKNEVGKIILSPFATTTKYPTFQDRPVSSLKFGKLLKTVVRQNKNHYLLEYKKGDGIALLSEERVRLRGQLWTKEWYIGYYQGRVGLVHTKNVLVVGRARPSLCSGPELSTSVLLEQILRPCKFLTYIYASVRTLLMENISSWRSFADALGYVNLPLTFFCRAELDSEPERVASVLEKLKEDCNNTENKERKSFQKELVMALLKMDCQGLVVRLIQDFVLLTTAVEVAQRWRELAEKLAKVSKQQMDAYESPHRDRNGVVDSEAMWKPAYDFLLTWSHQIGDSYRDVIQELHLGLDKMKNPITKRWKHLTGTLILVNSLDVLRAAAFSPADQDDFVI [SH3BP4]”, for which, in the data set on HeLa Kyoto [1], the “solubility in G1/S (log2)” value was -0.0978. The thermal stability score in the data set with HeLa Kyoto [2] (setting [5]) stood at 0.727; in the data set on HeLa Kyoto [2] (cell cycle stage: mitosis), 0.411. The melting temperature with HeLa Kyoto [3] (cell cycle stage: G1/S) stood at 50.4 °C; with HeLa Kyoto [3] (cell cycle stage: mitosis), 49.2 °C. Further, the “solubility change mitosis (log2)” value with HeLa Kyoto [4] was -0.133.

For “MPAVASVPKELYLSSSLKDLNKKTEVKPEKISTKSYVHSALKIFKTAEECRLDRDEERAYVLYMKYVTVYNLIKKRPDFKQQQDYFHSILGPGNIKKAVEEAERLSESLKLRYEEAEVRKKLEEKDRQEEAQRLQQKRQETGREDGGTLAKGSLENVLDSKDKTQKSNGEKNEKCETKEKGAITAKELYTMMTDKNISLIIMDARRMQDYQDSCILHSLSVPEEAISPGVTASWIEAHLPDDSKDTWKKRGNVEYVVLLDWFSSAKDLQIGTTLRSLKDALFKWESKTVLRNEPLVLEGGYENWLLCYPQYTTNAKVTPPPRRQNEEVSISLDFTYPSLEESIPSKPAAQTPPASIEVDENIELISGQNERMGPLNISTPVEPVAASKSDVSPIIQPVPSIKNVPQIDRTKKPAVKLPEEHRIKSESTNHEQQSPQSGKVIPDRSTKPVVFSPTLMLTDEEKARIHAETALLMEKNKQEKELRERQQEEQKEKLRKEEQEQKAKKKQEAEENEITEKQQKAKEEMEKKESEQAKKEDKETSAKRGKEITGVKRQSKSEHETSDAKKSVEDRGKRCPTPEIQKKSTGDVPHTSVTGDSGSGKPFKIKGQPESGILRTGTFREDTDDTERNKAQREPLTRARSEEMGRIVPGLPSGWAKFLDPITGTFRYYHSPTNTVHMYPPEMAPSSAPPSTPPTHKAKPQIPAERDREPSKLKRSYSSPDITQAIQEEEKRKPTVTPTVNRENKPTCYPKAEISRLSASQIRNLNPVFGGSGPALTGLRNLGNTCYMNSILQCLCNAPHLADYFNRNCYQDDINRSNLLGHKGEVAEEFGIIMKALWTGQYRYISPKDFKITIGKINDQFAGYSQQDSQELLLFLMDGLHEDLNKADNRKRYKEENNDHLDDFKAAEHAWQKHKQLNESIIVALFQGQFKSTVQCLTCHKKSRTFEAFMYLSLPLASTSKCTLQDCLRLFSKEEKLTDNNRFYCSHCRARRDSLKKIEIWKLPPVLLVHLKRFSYDGRWKQKLQTSVDFPLENLDLSQYVIGPKNNLKKYNLFSVSNHYGGLDGGHYTAYCKNAARQRWFKFDDHEVSDISVSSVKSSAAYILFYTSLGPRVTDVAT [USP8]”, the “solubility in G1/S (log2)” value with HeLa Kyoto [1] was -0.121. Further, the thermal stability score with HeLa Kyoto [2] (setting [5]) is -0.07; in the data set with HeLa Kyoto [2] (cell cycle stage: mitosis), -0.00341. For the same sequence, the melting temperature with HeLa Kyoto [3] (cell cycle stage: G1/S) amounted to 49.2 °C; in the data set with HeLa Kyoto [3] (cell cycle stage: mitosis) it was 49.3 °C. Besides, in the data set on HeLa Kyoto [4], the “solubility change mitosis (log2)” value was -0.0263.
